In PMC10883291 one finds EC50 data, which are given here for two substances.

Holding throughout (experiment): FRET or BRET; time-resolved FRET (Cisbio); FcγRs expressed on HEK293 cells (Tb donor cells); IgG-d2 acceptor conjugate displaced by the test antibodies; EC50 by the manufacturer's protocol
Background: In BRET a luciferase serves as donor, and the signal depends on an acceptor being close.

In experiment [1] the target is FcγR1 (CD64) (human) (UniProt P12314).
Experiment [2] deals with FcγR2A (CD32aH131) (human) (UniProt P12318).
Chain of FcγR2A (CD32aH131) (human) (P12318 34-317): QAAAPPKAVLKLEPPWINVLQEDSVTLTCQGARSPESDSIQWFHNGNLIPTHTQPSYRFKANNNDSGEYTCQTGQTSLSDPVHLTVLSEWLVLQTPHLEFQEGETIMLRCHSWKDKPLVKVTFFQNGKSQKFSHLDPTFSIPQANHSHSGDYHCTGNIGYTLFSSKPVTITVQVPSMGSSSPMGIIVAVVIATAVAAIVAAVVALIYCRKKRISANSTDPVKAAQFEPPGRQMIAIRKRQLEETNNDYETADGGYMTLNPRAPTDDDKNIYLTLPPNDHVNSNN
The target of experiment [3] is FcγR2B (human) (UniProt P31994).
Chain of FcγR2B (human) (P31994 43-310): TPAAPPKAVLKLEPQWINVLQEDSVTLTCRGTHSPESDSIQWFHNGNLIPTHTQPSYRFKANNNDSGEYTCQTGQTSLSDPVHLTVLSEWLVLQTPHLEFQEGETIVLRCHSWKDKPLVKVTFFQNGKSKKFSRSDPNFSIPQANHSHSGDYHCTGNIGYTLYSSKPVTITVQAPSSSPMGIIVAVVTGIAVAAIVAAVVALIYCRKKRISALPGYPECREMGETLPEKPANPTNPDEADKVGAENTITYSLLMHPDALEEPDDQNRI
Experiment [4] has as its target FcγR3A (CD16aF158) (human) (UniProt P08637).
Experiment [5] addresses FcγR2A (CD32aR131) (human).

Chain of FcγR1 (CD64) (human) (P12314 16-374): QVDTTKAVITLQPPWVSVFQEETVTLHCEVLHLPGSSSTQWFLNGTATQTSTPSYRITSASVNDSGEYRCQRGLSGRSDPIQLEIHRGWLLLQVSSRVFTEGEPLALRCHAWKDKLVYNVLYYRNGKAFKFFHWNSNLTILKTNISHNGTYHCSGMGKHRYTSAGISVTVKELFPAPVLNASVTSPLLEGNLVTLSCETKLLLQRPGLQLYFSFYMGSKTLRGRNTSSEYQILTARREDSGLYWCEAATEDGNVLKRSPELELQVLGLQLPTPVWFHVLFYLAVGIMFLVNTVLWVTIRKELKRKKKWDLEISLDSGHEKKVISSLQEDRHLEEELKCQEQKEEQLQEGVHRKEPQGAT
Chain of FcγR2A (CD32aR131) (human) (P12318 34-317 H167R): as the sequence (P12318 34-317) above, with H134R counted along it
Chain of FcγR3A (CD16aF158) (human) (P08637 17-254): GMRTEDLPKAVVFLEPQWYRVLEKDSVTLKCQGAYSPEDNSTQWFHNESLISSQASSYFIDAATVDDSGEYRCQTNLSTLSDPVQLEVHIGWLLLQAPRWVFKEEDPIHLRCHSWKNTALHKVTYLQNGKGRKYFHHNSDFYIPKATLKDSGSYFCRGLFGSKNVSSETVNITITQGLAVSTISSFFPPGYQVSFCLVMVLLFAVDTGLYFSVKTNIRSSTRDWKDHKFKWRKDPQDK

Take BMS-986351 (antibody): the EC50 amounted to 0.8 nM in experiment [1], 200 nM in experiment [2], 2480 nM in experiment [3] and 1200 nM in experiment [4].
Take Rituximab (antibody): the EC50 was determined as 0.8 nM in experiment [1], 361 nM in experiment [2] and 194 nM in experiment [5].

By EC50 is commonly meant the concentration that produces a half-maximal response. High values mean weaker potency, low ones greater potency.
